Experimental data from the supplement of paper PMC9732359.
± gives the uncertainty stated by the source.

Experiment: protein stability index of a GFP-peptide fusion (yeast GPS) (PSI 1-4); higher = more stable; sorted into four equal gates, so the index is relative within each strain
Summary of the method: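 Tiled 17-residue yeast protein peptides were fused downstream of GFP in a plasmid that also expresses Cherry, and the pooled library was carried in yeast. Mid-log cultures in leucine-free medium were sorted into four equal gates by GFP/Cherry fluorescence ratio, and plasmids from each gate were PCR-amplified and Illumina-sequenced, with reads assigned to strains by barcodes. The protein stability index for each peptide was each gate's read frequency times its gate number, summed.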

| Sequence | protein stability index (doa10∆) | protein stability index (pdr5∆) | protein stability index (san1∆) | protein stability index (ubr1∆) |
| --- | --- | --- | --- | --- |
| FFDGSASSTPIPVLGKP [YOR098C/NUP1] | 2.6 ± 0.044 | 2.94 ± 0.04 | 2.72 ± 0.036 | 2.67 ± 0.026 |
| ETSSDGSKSDGSAATSG [RPN1] | 3.39 ± 0.053 | 3.4 ± 0.055 | 3.62 ± 0.048 | 3.3 ± 0.036 |
| ICERIFEQGQALKEDER [RRI2] | – | – | – | 3.21 ± 0.19 |
| RLQQGRRLPMTMFTAEQ [SNF2] | 3.09 ± 0.053 | 3.19 ± 0.048 | 3.13 ± 0.043 | 3.27 ± 0.045 |
| EERFSELFKGYLADDID [RPL5] | 3.05 ± 0.29 | 3.27 ± 0.24 | 3.3 ± 0.17 | 3.01 ± 0.28 |
| LEKTSRILNFFDKNTKT [YMR153W/NUP53] | 2.59 ± 0.08 | 3.09 ± 0.087 | 2.75 ± 0.089 | 2.7 ± 0.052 |
| NNTHVGRQFCNRLSRIH [YLR018C/POM34] | 2.34 ± 0.12 | 2.69 ± 0.17 | 2.3 ± 0.23 | 1.95 ± 0.089 |
| VAKLANWFLEVYASGNP [YML031W/NDC1] | 2.1 ± 0.069 | 2.09 ± 0.049 | 1.89 ± 0.12 | 1.12 ± 0.055 |
| RPKKITGWITQSTPVLL [RPN1] | 2.21 ± 0.048 | 2.11 ± 0.043 | 2.3 ± 0.057 | 2.18 ± 0.035 |
| QYESQAPDGSASISLPN [SWP82] | 2.97 ± 0.055 | 2.61 ± 0.05 | 2.92 ± 0.038 | 2.83 ± 0.029 |
| LFMKSLIENCKKRNMPL [SWI1] | 2.68 ± 0.053 | 2.72 ± 0.068 | 2.83 ± 0.045 | 2.82 ± 0.042 |
| EITGTSCLTFFQALDSE [ITC1] | 2.46 ± 0.086 | 2.78 ± 0.099 | 2.42 ± 0.1 | 1.82 ± 0.057 |
| RERRIHVTQEDFELAVG [RPT6] | 2.38 ± 0.074 | 2.74 ± 0.06 | 2.08 ± 0.074 | 2.61 ± 0.066 |
| TLSHLRRTNTPIGRDGK [RPB2] | 2.14 ± 0.043 | 2.26 ± 0.038 | 2.24 ± 0.057 | 2.08 ± 0.036 |
| LIVDTHVQFRLGNVDAF [PRP8] | 2.75 ± 0.11 | 2 ± 0.11 | 2.32 ± 0.13 | 1.72 ± 0.066 |
| LRACAANVDQISFLEPI [YMR129W/POM152] | 3.06 ± 0.072 | 2.98 ± 0.07 | 2.92 ± 0.05 | 2.97 ± 0.046 |
| ADVKGVCTEAGMYALRE [RPT6] | 1.82 ± 0.08 | 2.23 ± 0.094 | 1.97 ± 0.12 | 1.27 ± 0.27 |
| PQYQYQRRYVIKEKVQF [ITC1] | 1.56 ± 0.069 | 1.88 ± 0.047 | 1.79 ± 0.095 | 1.47 ± 0.03 |
| FHKYRLKRNSWPKTRGV [RPL2A] | 2.44 ± 0.099 | 2.71 ± 0.1 | 2.83 ± 0.12 | 2.31 ± 0.091 |
| KVTKIWSKESNYDCKVI [PRP28] | 2.93 ± 0.1 | 2.47 ± 0.059 | 2.61 ± 0.051 | 2.97 ± 0.058 |
| KVQDAIEEEIFDDSSRI [LIN1] | 3.07 ± 0.1 | 3.19 ± 0.11 | 3.16 ± 0.081 | 3.06 ± 0.069 |
| FQLLEPLSTYNKNGNAV [PGD1] | 2.81 ± 0.058 | 2.93 ± 0.057 | 2.77 ± 0.05 | 2.74 ± 0.036 |
| QMAVHIATDGGRICRPL [RET1] | 2.66 ± 0.094 | 3.04 ± 0.085 | 2.78 ± 0.1 | 2.8 ± 0.054 |
| YTYSSTLSHLRRTNTPI [RPB2] | 2.06 ± 0.043 | 2.13 ± 0.04 | 2.23 ± 0.063 | 2.17 ± 0.033 |
| ISMNAPVFVDLEGETDP [RPO26] | – | 2.78 ± 0.3 | – | 3 ± 0.19 |
| QNFENDFSLRYISNLLY [REC8] | 2.19 ± 0.074 | 2.29 ± 0.076 | 2.02 ± 0.11 | 2.06 ± 0.043 |
| EKASRQQRKQKKNRDKK [RPS24A] | 3.44 ± 0.094 | 3.17 ± 0.075 | 3.25 ± 0.044 | 3.32 ± 0.083 |
